This note sets out measurements from the RNAGym collection of RNA variant scans (doi:10.1073/pnas.2313332121).

B1: TPR t1 (parent)
chain: GACCAAUCUGCCCUCAGAGCUCGAGAACAUCUUCGGAUGCAGAGGAGGCAGGCUUCGGUGGCGCGAUAGCGCCAACGUCCUCAACCUCCAAUGCAUCCCACCACAUGAUGAUGCCUGAAGAGCCUUGGUUUUUUG

This data set covers variants of B1. The data set is described as follows: polymerase ribozyme fitness, log enrichment relative to wild type (log ratio); higher = more active; in vitro selection for triplet polymerase activity. A digest of the protocol:
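Each subunit of a heterodimeric triplet polymerase ribozyme was represented by a PCR-built, transcribed mutant library that underwent triplicate single-round in vitro selection with frozen incubation at −7 °C. Extended constructs were recovered by gel excision, streptavidin-bead capture and RT-PCR, and Illumina sequencing of input and output libraries kept genotypes with ≥10 input reads and ≥1 read per output. Fitness is the logarithm of genotype enrichment relative to wild-type enrichment, from inverse-variance-weighted replicate averages, with a logarithm base of 2.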
For U33A U59A G61U U106G, the “polymerase ribozyme fitness (log ratio)” value was -5.96.
The figure for C31U A119G is -3.71; for U33C U132A it is -4.81; for U33A G36U G69U C99G it is -5.44.
The value for C31G A111U C114U was -6.64; that for U32A C40U G63A A83G G120C was -7.22; that for U32C U54C G71C A95C was -3.01.
The figure for C31U U59G C73U is -5.82; for C31G C88G G110A U126G it is -6.03.
For U30C U78A U96A, the “polymerase ribozyme fitness (log ratio)” value is -5.15.
The value for U30C G42U C76G C85A G122A C123G was -4.17; that for U32C G44A G61U U131G was -0.948; that for C31U C53U was -4.91.
On to U32C G60C A75C C79G A118U, for which the “polymerase ribozyme fitness (log ratio)” value was -1.88.
The value for U33A U87A was -4.12; that for U32C G36A U92A A105U C123A C124G was -5.91.
With U33A A46C G61A, the “polymerase ribozyme fitness (log ratio)” value was -5.04.
The value for U32A U38C G69C A95U was -6.24; that for C31U C34G C53G C70G A90C G120A G122A C124A was -7.98.
U30C U78G: the “polymerase ribozyme fitness (log ratio)” value was -3.78.
With U33G G48U G60A C97G G120A, the “polymerase ribozyme fitness (log ratio)” value is -7.27.
For the variant U32C G61U C85G, the “polymerase ribozyme fitness (log ratio)” value was -3.56.
As to C31U G110A, the “polymerase ribozyme fitness (log ratio)” value was -4.35.
As to U33G C104U, the “polymerase ribozyme fitness (log ratio)” value was -5.5.
Regarding U32A C56A, the “polymerase ribozyme fitness (log ratio)” value is -3.44.
As for U32A C56G, the “polymerase ribozyme fitness (log ratio)” value was -3.79.
For C31A G44U C101U C124G, the “polymerase ribozyme fitness (log ratio)” value was -5.62.
The value for U30G C34G C56A U109A A111C G117U U131C U132C was -6.83; that for U32C G63C was -0.346.
The figure for U32C C72G G117U U134G is -1.41; for U33G G93A A100U C114U it is -7.04.
Consider U30C A50G A74G C123U, for which the “polymerase ribozyme fitness (log ratio)” value was -3.32.
The figure for U33C G60A is -4.87.
For the variant U32C C56U C72U A111U, the “polymerase ribozyme fitness (log ratio)” value was -3.66.
In the case of C31U C86U, the “polymerase ribozyme fitness (log ratio)” value was -4.08.
The figure for C31A G36C G60C C72G C98A C99A C124U G128U is -7.42; for U32C G44U U92G A118U U133A it is -3.79; for U32G C72U C102U G113A it is -7.34.
The figure for U32C G61A U67G C82U is -7.29; for C31U A66C U78G U106A C123A it is -2.21.
Consider U30G C115A, for which the “polymerase ribozyme fitness (log ratio)” value is -5.72.
For C31U C82A, the “polymerase ribozyme fitness (log ratio)” value was -5.41.
Regarding U32A U33C A121U G135A, the “polymerase ribozyme fitness (log ratio)” value is -4.41.
For the variant C31A G63U C88G A121U, the “polymerase ribozyme fitness (log ratio)” value was -6.64.
The figure for C31U C123A is -4.45; for C31U C123G G127A it is -4.45; for C31U G63U G107A it is -2.29.
Turning to C31G G39A G107C U133G, the “polymerase ribozyme fitness (log ratio)” value is -2.1.
The figure for U33A A66G C123A is -6.2.
The figure for U32A U59C is -3.8.
The figure for U32G A37U C73U G113A is -6.09; for U32C G47U G48U C76U U112G it is -4.6.
With U32C A105G U109G G117A, the “polymerase ribozyme fitness (log ratio)” value is -7.37.
The figure for U33A C79U C94A C104U G120A is -4.61; for U32G C82U A121C it is -6.01; for U30C U78A U106C A121U it is -2.15.
Consider C31G A41U U55G G61U C86U G93C C102U G113C, for which the “polymerase ribozyme fitness (log ratio)” value was -6.73.
In the case of C31G G36A G52A C56U C115G, the “polymerase ribozyme fitness (log ratio)” value is -7.46.
The figure for U32C U33A C104A U109G C114U A121U G122C is -5.8; for U33G C64U U112G it is -6.48.
As to U32C G71U, the “polymerase ribozyme fitness (log ratio)” value was -1.13.
Regarding U33A A46U, the “polymerase ribozyme fitness (log ratio)” value was -4.71.
The figure for C31G G35C A43G G110C is -7.68.
Turning to U32C G113U, the “polymerase ribozyme fitness (log ratio)” value is -2.9.
The value for C31U U78G C101G C104A G110A was -5.57; that for U32G C49A C70U A74G A83G G93C C114A U125G was -7.4.
With U33A G36U, the “polymerase ribozyme fitness (log ratio)” value was -4.74.
For the variant U32A G48U G58A C123U, the “polymerase ribozyme fitness (log ratio)” value is -4.55.
With U33G C76G C88A C115U, the “polymerase ribozyme fitness (log ratio)” value is -6.6.
With C31U C72U U112A, the “polymerase ribozyme fitness (log ratio)” value is -3.81.
The value for U33G C70U U78G was -6.53.
Turning to C31U C115A G120A, the “polymerase ribozyme fitness (log ratio)” value was -4.78.
With C31U C49U C104U C115A, the “polymerase ribozyme fitness (log ratio)” value was -4.23.
The value for C31U C49G G63U A75C was -6.11; that for U33A C88G was -4.9.
The value for U33A A37C was -4.7.
On to U32C A46G U109A, for which the “polymerase ribozyme fitness (log ratio)” value is -3.86.
For U32A C34G, the “polymerase ribozyme fitness (log ratio)” value was -6.88.
On to U30C G42U, for which the “polymerase ribozyme fitness (log ratio)” value is -3.85.
As to U32C G42U, the “polymerase ribozyme fitness (log ratio)” value is -2.17.
With U32C C70G A74C, the “polymerase ribozyme fitness (log ratio)” value is -5.82.
For the variant C31U U54G U59C A103C A111C, the “polymerase ribozyme fitness (log ratio)” value is -5.45.
With C31G A50C U112A, the “polymerase ribozyme fitness (log ratio)” value is -6.45.
